Data as given in patent US20050142114A1.

Experiments:
[1] = target: CD209 (DC-SIGN) on monocyte-derived dendritic cells (human) (UniProt Q9NNX6); assay: flow cytometry, right shift of the whole histogram vs. control peak (FIG. 1)
[2] = target: CD209 (DC-SIGN) on monocyte-derived dendritic cells (human) (UniProt Q9NNX6); assay: flow cytometry; calcein signal of immunoliposomes relative to FITC signal of the mAb
[3] = target: CD209 (DC-SIGN) on monocyte-derived dendritic cells (human) (UniProt Q9NNX6); assay: flow cytometry, percent of MoDCs positive for calcein after monospecific anti-CD209 protein A immunoliposomes (FIG. 4A)

Chain of UniProt Q9NNX6 (Q9NNX6 whole entry): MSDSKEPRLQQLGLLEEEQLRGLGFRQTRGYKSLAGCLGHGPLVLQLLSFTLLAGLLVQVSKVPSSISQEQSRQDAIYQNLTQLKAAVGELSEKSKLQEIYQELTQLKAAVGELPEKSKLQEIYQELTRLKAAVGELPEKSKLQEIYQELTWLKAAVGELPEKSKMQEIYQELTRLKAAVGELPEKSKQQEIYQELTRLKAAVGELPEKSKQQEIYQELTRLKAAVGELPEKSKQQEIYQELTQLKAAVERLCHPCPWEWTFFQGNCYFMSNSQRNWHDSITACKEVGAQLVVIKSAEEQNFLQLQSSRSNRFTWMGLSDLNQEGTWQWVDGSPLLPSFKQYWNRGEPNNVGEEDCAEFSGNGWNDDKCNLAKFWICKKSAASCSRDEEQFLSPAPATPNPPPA

CD209-specific mAb derived from clone 120507 (IgG2b), R&D Systems (antibody)
percent of cells targeted [1]: 100% | TEILS (immunoliposomal net targeting efficacy) [2]: 110% | liposomal targeting efficacy [3]: 83.3%
